Test results published in patent US7994276B2, “Composition of tumour-associated peptides and related anti-cancer vaccine” (Immatics Biotechnologies GmbH, priority 2007, dated 2011).
“Also recorded” adds a separate entry of the source.

Experiments:
HLA-A*0201 [1] = target: HLA-A*0201 (Homo sapiens, UniProt P04439, /I218V/L300P/L318F/N151K/N90K/P208A/P217A/Q86G/Q94H/R138H/R169H/T345S); experiment: ELISA-based HLA/peptide complex refolding assay, affinity to HLA-A*0201; type: binding
From the text: (§1) The objective of this analysis was to evaluate the affinity of the HLA class I peptides to the MHC molecule coded by the HLA-A*0201 allele as this is an important parameter for the mode of action of IMA910.
(§2) Stable HLA/peptide complexes consist of three molecules: HLA heavy chain, beta-2 microglobulin (b2m) and the peptidic ligand. The activity of denatured recombinant HLA-A*0201 heavy chain molecules alone can be preserved making them functional equivalents of “empty HLA-A*0201 molecules.” When diluted into aqueous buffer containing b2m and an appropriate peptide, these molecules fold rapidly and efficiently in an entirely peptide-dependent manner. The availability of these molecules is used in an ELISA-based assay to measure the affinity of interaction between peptide and HLA class I molecule (Sylvester-Hvid et al., 2002). Purified recombinant HLA-A*0201 molecules were incubated together with b2m and graded doses of the peptide of interest. The amount of de novo-folded HLA/peptide complexes was determined by a quantitative ELISA. Dissociation constants (KD values) were calculated using a standard curve recorded from dilutions of a calibrant HLA/peptide complex.

HLA-A*0201 [2] = target: HLA-A*0201 (Homo sapiens, UniProt P04439, D140Y/D185E/D98H/E176V/E277Q/G131W/G231S/I119V/I121R/I166T/I218V/L300P/L318F/N151K/N90K/P208A/P217A/Q86G/Q94H/R138H/R169H/T345S); experiment: as above; type: binding; settings: listed as IMA-MUC-001
From the text: as §1, §2

[3] = tested on: renal cell carcinoma patients; settings: cited from earlier work

STAPPVHNV (homo sapiens) [MUC-001]
Affinity to HLA-A*0201 (HLA-A*0201 [1]): relative low A*0201 affinity | Affinity to HLA-A*0201 compared to the other ligands (HLA-A*0201 [2]): about two decades weaker; also recorded: about two to three decades lower | T-cell / immune responses in vivo after vaccination [3]: led to immune responses in renal cell carcinoma patients
